Test results taken from patent US20240190989A1 (BEIGENE SWITZERLAND, published 2024).
Substitutions are numbered along the chain they refer to.

Assays:
Assay in all cases: ELISA-based FcγR binding, luminescence read-out (RLU)
FcγRIIIAF158 = FcγRIIIAF158 (UniProt P08637 17-208)
FcγRIIB = biological target: T1, FcγRIIB (UniProt P31994 43-217, limits assumed)
T1 sequence (looked up): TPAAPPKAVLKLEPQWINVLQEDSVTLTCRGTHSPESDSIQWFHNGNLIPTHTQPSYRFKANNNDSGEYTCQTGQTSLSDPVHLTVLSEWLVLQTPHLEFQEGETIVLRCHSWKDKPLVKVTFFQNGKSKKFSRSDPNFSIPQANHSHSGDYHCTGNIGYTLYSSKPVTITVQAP

FcγRI = FcγRI (UniProt P12314 16-288, limits assumed)
FcγRIIIB = FcγRIIIB (UniProt O75015 17-200, limits assumed)
FcγRIIAH131 = biological target: T2, FcγRIIAH131 (UniProt P12318 34-218)
T2 sequence (looked up): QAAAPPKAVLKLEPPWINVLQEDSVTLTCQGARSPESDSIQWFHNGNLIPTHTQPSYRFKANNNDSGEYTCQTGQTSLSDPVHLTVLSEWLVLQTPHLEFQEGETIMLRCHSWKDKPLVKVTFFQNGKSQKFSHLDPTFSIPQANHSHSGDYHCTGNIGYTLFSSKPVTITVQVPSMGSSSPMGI

FcγRIIAR131 = biological target: T3, FcγRIIAR131 (UniProt P12318 34-218)
T3 sequence (looked up): T2 sequence (looked up) with H134R

FcγRIIIAV158 = FcγRIIIAV158 (UniProt P08637 17-208)

Measured: binding result

Sequence of FcγRIIIAF158 (P08637 17-208): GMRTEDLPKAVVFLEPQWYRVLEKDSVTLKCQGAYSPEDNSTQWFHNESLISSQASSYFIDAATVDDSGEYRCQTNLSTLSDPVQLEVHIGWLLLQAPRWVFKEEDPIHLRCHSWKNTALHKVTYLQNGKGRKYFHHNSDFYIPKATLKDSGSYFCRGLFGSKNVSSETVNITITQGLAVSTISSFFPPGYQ
Sequence of FcγRIIIAV158 (P08637 17-208 F176V): as the sequence (P08637 17-208) above, with F160V counted along it
Sequence of FcγRIIIB (O75015 17-200 limits assumed): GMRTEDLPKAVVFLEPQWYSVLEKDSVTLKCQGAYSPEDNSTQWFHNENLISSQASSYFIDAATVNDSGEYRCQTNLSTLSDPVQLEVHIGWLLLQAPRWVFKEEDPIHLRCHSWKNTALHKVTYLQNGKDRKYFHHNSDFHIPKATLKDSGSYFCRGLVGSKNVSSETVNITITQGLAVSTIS
Sequence of FcγRI (P12314 16-288 limits assumed): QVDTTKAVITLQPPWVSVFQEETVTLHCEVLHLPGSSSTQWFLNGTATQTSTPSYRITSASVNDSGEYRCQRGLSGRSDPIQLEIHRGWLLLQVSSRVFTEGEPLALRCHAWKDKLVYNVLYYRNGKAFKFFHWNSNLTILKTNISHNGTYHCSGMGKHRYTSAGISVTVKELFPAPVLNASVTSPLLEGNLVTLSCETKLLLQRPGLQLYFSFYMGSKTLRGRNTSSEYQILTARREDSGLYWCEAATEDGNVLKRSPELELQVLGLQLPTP

B1: BE-146 (CEAxCD137 multispecific antibody) (bispecific antibody, human IgG1, kappa)
heavy: QVQLVQSGAEVKKPGASVKVSCKASGYIFTSYYLHWVRQAPGQGLEWIGYINPQTGKTSYAQKFQGRVTMTRDTSTSTVYMELSSLRSEDTAVYYCAREYGNYNYPLDYWGQGTLVTVSSASTKGPSVFPLAPSSKSTSGGTAALGCLVKDYFPEPVTVSWNSGALTSGVHTFPAVLQSSGLYSLSSVVTVPSSSLGTQTYICNVNHKPSNTKVDKKVEPKSCDKTHTCPPCPAPPAAGPSVFLFPPKPKDTLMISRTPEVTCVVVDVSHEDPEVKFNWYVDGVEVHNAKTKPREEQYNSTYRVVSVLTVLHQDWLNGKEYKCKVSNKALAAPIEKTISKAKGQPREPQVYTLPPSREEMTKNQVSLTCLVKGFYPSDIAVEWESNGQPENNYKTTPPVLDSDGSFFLYSKLTVDKSRWQQGNVFSCSVMHEALHNHYTQKSLSLSPGKGGGGSEVQLLESGGGLVQPGGSLRLSCAASGFTVSAEDVGWVRQAPGKGLEWVSAILDKGGSTYYAESVKGRFTISRDNAKNTLYLQMSSLRAEDTAVYYCARIVYHAGGGVTFDTRGQGTQVTVSS
light: DIQMTQSPSSLSASVGDRVTITCRASENQYGYLAWYQQKPGKVPKLLIYNYKNLVEGVPSRFSGSGSGTDFTLTISSLQPEDVATYYCQHHLGTPYTFGQGTKVEIKRTVAAPSVFIFPPSDEQLKSGTASVVCLLNNFYPREAKVQWKVDNALQSGNSQESVTEQDSKDSTYSLSSTLTLSKADYEKHKVYACEVTHQGLSSPVTKSFNRGEC
notes: Module ratio 2:2, Fc null version of huIgG1; copies: 2 + 2
no binding (tested: not shown): all assays above
